Assay results: paper PMC11770177, “Skeletal progenitor LRP1 deficiency causes severe and persistent skeletal defects with Wnt pathway dysregulation” (Bone Research, 2025)

Target: T1, low-density lipoprotein (LDL) receptor-related protein 1 (LRP1), purified human full-length (human, UniProt Q07954 20-4544)
T1 construct: LRP1, human, purified full-length protein coated onto microtiter plates; also called full-length LRP1; Full-length sLRP1; source: purified
Test: ELISA; solid-phase binding assay; human full-length LRP1 (10 nmol/L) coated overnight at 4 °C onto microtiter plates in 50 mmol/L Tris-HCl (pH 7.5)/150 mmol/L NaCl/10 mmol/L CaCl2; 0-200 nmol/L Wnt in 5% BSA blocking solution, 30 min at RT; bound Wnt detected with a specific antibody; signal of wells without LRP1 subtracted; apparent KD (K_D,app), extrapolated from a one-phase decay nonlinear fit
Conditions: both partners purified

T1 sequence (Q07954 20-4544): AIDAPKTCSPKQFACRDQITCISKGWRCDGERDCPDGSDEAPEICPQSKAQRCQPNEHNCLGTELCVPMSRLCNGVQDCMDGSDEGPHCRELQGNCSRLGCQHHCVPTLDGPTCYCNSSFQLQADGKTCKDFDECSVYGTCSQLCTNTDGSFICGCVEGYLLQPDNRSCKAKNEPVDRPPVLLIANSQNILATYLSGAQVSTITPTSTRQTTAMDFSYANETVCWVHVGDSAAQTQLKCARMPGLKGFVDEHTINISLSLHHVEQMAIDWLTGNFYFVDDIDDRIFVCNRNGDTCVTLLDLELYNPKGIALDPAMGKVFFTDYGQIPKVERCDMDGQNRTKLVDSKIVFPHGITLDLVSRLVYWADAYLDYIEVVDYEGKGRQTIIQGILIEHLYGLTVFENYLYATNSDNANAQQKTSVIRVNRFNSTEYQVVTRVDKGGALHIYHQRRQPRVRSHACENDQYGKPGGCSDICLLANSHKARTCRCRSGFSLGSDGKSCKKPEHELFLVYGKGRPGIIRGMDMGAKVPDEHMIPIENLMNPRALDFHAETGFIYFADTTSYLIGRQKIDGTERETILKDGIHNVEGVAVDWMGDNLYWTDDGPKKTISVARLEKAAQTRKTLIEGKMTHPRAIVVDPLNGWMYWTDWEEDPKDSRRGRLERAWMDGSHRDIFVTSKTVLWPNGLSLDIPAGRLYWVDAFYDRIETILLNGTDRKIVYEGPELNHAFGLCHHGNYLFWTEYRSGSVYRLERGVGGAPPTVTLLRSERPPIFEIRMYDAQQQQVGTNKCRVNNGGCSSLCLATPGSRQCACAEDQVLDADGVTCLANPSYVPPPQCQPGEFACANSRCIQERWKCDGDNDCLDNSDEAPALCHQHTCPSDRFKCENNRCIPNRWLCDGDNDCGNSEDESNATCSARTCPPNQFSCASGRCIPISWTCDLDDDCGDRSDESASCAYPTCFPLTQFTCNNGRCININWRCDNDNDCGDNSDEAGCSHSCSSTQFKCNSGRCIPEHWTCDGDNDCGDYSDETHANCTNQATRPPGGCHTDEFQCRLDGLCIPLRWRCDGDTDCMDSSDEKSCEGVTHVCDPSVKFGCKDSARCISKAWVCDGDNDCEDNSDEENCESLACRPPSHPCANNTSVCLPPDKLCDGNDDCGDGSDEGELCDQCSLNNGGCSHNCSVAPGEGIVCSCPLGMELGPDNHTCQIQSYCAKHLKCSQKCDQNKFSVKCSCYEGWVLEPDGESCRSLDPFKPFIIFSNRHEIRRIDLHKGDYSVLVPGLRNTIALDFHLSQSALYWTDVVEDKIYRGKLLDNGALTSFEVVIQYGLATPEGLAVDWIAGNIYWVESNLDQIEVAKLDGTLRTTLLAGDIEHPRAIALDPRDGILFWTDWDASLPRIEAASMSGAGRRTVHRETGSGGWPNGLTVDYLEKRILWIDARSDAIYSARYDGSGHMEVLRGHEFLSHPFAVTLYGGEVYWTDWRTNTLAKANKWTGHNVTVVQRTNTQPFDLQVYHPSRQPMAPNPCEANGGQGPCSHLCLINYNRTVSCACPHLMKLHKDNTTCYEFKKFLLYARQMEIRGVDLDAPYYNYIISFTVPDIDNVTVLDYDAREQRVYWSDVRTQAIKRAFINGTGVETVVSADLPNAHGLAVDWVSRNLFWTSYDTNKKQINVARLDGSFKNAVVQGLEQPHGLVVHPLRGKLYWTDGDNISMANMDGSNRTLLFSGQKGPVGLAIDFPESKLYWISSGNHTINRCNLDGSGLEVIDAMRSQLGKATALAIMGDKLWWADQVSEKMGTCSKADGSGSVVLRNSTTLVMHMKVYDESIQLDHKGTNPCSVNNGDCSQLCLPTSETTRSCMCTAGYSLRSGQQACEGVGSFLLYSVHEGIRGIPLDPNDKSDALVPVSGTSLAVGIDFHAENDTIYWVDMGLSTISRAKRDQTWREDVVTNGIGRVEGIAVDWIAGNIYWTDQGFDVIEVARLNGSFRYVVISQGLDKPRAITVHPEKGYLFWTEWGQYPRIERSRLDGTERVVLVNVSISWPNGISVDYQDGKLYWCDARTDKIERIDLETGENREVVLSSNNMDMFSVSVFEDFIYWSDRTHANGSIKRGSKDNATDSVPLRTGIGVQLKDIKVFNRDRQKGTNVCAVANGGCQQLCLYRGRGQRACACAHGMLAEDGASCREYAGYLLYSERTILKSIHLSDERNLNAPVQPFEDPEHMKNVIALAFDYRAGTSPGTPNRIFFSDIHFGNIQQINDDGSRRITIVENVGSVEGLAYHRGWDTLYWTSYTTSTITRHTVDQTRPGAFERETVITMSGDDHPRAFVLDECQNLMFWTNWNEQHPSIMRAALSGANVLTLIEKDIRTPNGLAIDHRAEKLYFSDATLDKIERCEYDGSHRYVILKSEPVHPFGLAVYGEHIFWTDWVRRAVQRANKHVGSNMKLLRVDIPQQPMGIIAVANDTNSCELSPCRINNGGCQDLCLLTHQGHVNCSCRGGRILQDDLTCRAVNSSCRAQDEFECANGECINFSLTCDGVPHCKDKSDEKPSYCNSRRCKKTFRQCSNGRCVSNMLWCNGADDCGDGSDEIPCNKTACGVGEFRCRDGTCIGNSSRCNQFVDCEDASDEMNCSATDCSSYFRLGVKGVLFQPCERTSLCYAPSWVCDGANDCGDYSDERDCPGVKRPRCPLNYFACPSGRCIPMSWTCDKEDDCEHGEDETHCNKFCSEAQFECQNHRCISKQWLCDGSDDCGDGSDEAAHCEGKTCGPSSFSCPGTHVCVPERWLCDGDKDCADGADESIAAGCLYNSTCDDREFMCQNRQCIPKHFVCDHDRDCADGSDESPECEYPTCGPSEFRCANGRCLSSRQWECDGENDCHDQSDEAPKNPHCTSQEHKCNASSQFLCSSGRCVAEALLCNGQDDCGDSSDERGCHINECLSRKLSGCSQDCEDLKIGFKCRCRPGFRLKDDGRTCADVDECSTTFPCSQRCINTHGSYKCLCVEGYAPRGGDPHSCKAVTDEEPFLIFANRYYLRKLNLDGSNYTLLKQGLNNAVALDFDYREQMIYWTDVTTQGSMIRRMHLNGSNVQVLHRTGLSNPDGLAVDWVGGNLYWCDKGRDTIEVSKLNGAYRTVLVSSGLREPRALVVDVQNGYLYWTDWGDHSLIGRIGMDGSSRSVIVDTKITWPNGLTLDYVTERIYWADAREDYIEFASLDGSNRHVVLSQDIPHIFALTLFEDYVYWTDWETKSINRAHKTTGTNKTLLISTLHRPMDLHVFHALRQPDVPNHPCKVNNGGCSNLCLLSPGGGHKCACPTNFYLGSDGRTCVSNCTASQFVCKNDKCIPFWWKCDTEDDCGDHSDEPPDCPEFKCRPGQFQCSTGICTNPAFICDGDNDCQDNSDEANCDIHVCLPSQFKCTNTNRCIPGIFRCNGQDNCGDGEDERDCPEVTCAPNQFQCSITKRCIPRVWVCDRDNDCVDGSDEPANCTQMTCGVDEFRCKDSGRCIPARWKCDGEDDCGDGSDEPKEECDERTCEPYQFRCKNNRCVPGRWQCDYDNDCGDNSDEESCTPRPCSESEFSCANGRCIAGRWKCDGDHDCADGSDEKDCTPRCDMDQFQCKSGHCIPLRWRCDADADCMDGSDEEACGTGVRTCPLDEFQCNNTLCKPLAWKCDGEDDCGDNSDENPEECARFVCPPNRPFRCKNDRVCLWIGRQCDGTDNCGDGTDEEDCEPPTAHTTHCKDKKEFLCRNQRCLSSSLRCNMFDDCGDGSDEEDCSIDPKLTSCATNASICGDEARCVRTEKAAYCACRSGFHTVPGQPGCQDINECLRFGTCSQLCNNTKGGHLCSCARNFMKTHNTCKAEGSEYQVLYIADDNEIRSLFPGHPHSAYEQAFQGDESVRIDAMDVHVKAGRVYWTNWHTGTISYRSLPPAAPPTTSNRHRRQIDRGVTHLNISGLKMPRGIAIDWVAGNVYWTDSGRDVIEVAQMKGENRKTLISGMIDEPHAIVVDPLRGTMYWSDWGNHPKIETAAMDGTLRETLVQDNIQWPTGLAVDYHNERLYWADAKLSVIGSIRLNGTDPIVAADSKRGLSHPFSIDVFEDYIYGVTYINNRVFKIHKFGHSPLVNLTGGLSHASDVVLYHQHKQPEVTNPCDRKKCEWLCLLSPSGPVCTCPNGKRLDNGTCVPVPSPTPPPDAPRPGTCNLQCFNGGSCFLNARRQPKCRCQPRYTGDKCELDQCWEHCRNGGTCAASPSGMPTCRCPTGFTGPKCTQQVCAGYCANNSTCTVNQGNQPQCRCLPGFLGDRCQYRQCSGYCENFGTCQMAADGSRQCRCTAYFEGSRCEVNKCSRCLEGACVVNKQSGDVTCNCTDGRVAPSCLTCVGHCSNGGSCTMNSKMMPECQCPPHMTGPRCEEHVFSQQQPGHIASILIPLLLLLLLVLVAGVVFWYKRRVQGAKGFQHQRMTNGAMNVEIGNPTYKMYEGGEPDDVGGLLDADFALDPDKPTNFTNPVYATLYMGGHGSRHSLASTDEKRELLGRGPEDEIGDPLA

| Binder | Kd [nM] |
| --- | --- |
| Wnt5a (ligand, UniProt P41221 62-380, looked up, Wnt5a, purified protein; also called purified Wnt5a; source: purified) IIGAQPLCSQLAGLSQGQKKLCHLYQDHMQYIGEGAKTGIKECQYQFRHRRWNCSTVDNTSVFGRVMQIGSRETAFTYAVSAAGVVNAMSRACREGELSTCGCSRAARPKDLPRDWLWGGCGDNIDYGYRFAKEFVDARERERIHAKGSYESARILMNLHNNEAGRRTVYNLADVACKCHGVSGSCSLKTCWLQLADFRKVGDALKEKYDSAAAMRLNSRGKLVQVNSRFNSPTTQDLVYIDPSPDYCVRNESTGSLGTQGRLCNKTSEGMDGCELMCCGRGYDQFKTVQTERCHCKFHWCCYVKCKKCTEIVDQFVCK | 31 |
| Wnt11 (ligand, UniProt O96014 25-354, looked up, Wnt11, purified protein; also called purified Wnt11; source: purified) IKWLALSKTPSALALNQTQHCKQLEGLVSAQVQLCRSNLELMHTVVHAAREVMKACRRAFADMRWNCSSIELAPNYLLDLERGTRESAFVYALSAAAISHAIARACTSGDLPGCSCGPVPGEPPGPGNRWGGCADNLSYGLLMGAKFSDAPMKVKKTGSQANKLMRLHNSEVGRQALRASLEMKCKCHGVSGSCSIRTCWKGLQELQDVAADLKTRYLSATKVVHRPMGTRKHLVPKDLDIRPVKDSELVYLQSSPDFCMKNEKVGSHGTQDRQCNKTSNGSDSCDLMCCGRGYNPYTDRVVERCHCKYHWCCYVTCRRCERTVERYVCK | 42 |
| Wnt3a (ligand, UniProt P56704 19-352, looked up, Wnt3a, purified protein; also called purified Wnt3a; source: purified) SYPIWWSLAVGPQYSSLGSQPILCASIPGLVPKQLRFCRNYVEIMPSVAEGIKIGIQECQHQFRGRRWNCTTVHDSLAIFGPVLDKATRESAFVHAIASAGVAFAVTRSCAEGTAAICGCSSRHQGSPGKGWKWGGCSEDIEFGGMVSREFADARENRPDARSAMNRHNNEAGRQAIASHMHLKCKCHGLSGSCEVKTCWWSQPDFRAIGDFLKDKYDSASEMVVEKHRESRGWVETLRPRYTYFKVPTERDLVYYEASPNFCEPNPETGSFGTRDRTCNVSSHGIDGCDLLCCGRGHNARAERRREKCRCVFHWCCYVSCQECTRVYDVHTCK | > 200 |
